From the Human Domainome abundance scans (Beltran et al. 2025)

B1: E3 ubiquitin-protein ligase Midline-1, residues 172 to 214; numbered along this chain, O15344 (parent)
chain: GLMCLEHEDEKVNMYCVTDDQLICALCKLVGRHRDHQVAALSE
B2: Steroid hormone receptor ERR2, residues 100 to 176; numbered along this chain, O95718 (parent)
chain: KRLCLVCGDIASGYHYGVASCEACKAFFKRTIQGNIEYSCPATNECEITKRRRKSCQACRFMKCLKVGMLKEGVRLD

Variants of: B1
Assay: abundance fitness (aPCA) (normalised: wild type 0, dead -1); higher = more abundant; growth selection in yeast, the domain comes from the species named
Conditions: Homo sapiens

Abundance fitness of substitutions, site by site:
V38: T -0.233; K -0.209; G -0.134; Q -0.125; M -0.18; S -0.008; W -0.018; N -0.243; R -0.217; F 0.124; I -0.217; C 0.076; L -0.035; H 0.082; D -0.131
A39: H -0.024; Y -0.393; Q 0.04; T 0.181; I -0.08; D 0.088; C 0.003; W -0.424; N 0.401; M -0.089; K 0.059; S 0.102; E 0.016; V 0.027; P -0.491
L41: I -0.082; S 0.134; Q 0.136; K 0.161; W 0.001; N -0.034; A 0.072; T 0.12; Y -0.467; V -0.053; M 0.069; G 0.051; C 0.176; P 0.297; H 0.172; F -0.132
H33: F -0.528; Q -0.73; G -0.478; K -0.423; L -0.829; T -0.538; R -0.732; W -1.01; E -0.576; D -0.647; N -0.42; Y -0.603; V -0.882; A -0.591; S -0.718
D35: L -0.172; T -0.042; A -0.285; F -0.254; R -0.287; S -0.189; M -0.299; N -0.114; P -0.299; I -0.496; V -0.28; E 0.088; K -0.105; C -0.142; Q 0.034; H -0.177; Y -0.33
R32: E 0.149; W -0.323; I -0.18; H -0.152; F -0.593; A 0.033; M -0.219; G 0.061; N 0.287; K 0.116; L -0.058; T 0.09; P -0.022; D -0.072; V -0.172; C -0.021; Q 0.007; S 0.073
E43: A -0.004; G -0.045; W -0.175; K 0.091; L -0.241; D -0.239; H -0.197; R -0.031; P -0.076; T -0.221; S 0.058; V -0.534; Q -0.317
G31: E -0.154; W -0.803; Y -0.19; D 0.111; C -0.121; H 0.057; T -0.333; R -0.299; K -0.065; M -0.514; I -0.887; S -0.263; F -0.519; Q -0.438; L -0.47; A -0.231
Q37: A -0.006; T -0.026; H -0.148; E 0.023; S 0.047; M -0.269; Y -0.169; I -0.508; L -0.338; D 0.105; G -0.146; F -0.347; V -0.208; N -0.184; P -0.015; R -0.077; W -0.6
S42: Y -0.34; H 0.089; G 0.078; F -0.656; N 0.142; L -0.342; C 0.012; E 0.119; P 0.056; I -0.446; D 0.209; T 0.064; Q -0.049; R -0.127; A -0.021; M -0.262
R34: A 0.164; V -0.069; P -0.24; Y -0.544; I 0; E 0.063; W -0.542; S -0.066; K 0.376; G 0.048; Q 0.088; C 0.033; L -0.376; H 0.25; D -0.169
H36: Y -0.381; G -0.516; D -0.798; Q -0.284; I -0.488; E -0.546; T -0.689; V -0.588; S -0.533; M -1.04; P -0.637; K 0.034; A -0.445; N -0.376; L -0.753; C -0.056; R -0.669; W -1.01
A40: L -0.158; F 0.099; G 0.046; R -0.019; P 0.228; I -0.789; T 0.035; Q 0.082; W -0.406; K 0.108; S 0.065; Y -0.572; M -0.151; D 0.031; H -0.141; V -0.236
V30: H 0.21; R -0.055; S 0.114; P 0.022; N 0.147; W -0.309; M -0.039; G 0.134; L -0.028; F -0.381; Y -0.049; K 0.235; I -0.131

Variants of: B2
Assay: as above
Conditions: Homo sapiens

Abundance fitness, by site and new letter:
C4: G -0.696; D -1.1; I -0.956; R -0.792; S -0.824; H -0.956; F -1.09; E -0.634; A -0.801; Q -0.759; Y -0.426; K -0.66; M -0.72; L -0.8; T -0.79; V -0.917; P -0.938; W -0.934
L5: N -0.246; R -0.197; W -0.332; I -0.333; Q -0.094; F -0.133; S -0.233; T -0.031; C -0.375; P -0.358; K -0.143; V -0.424; A -0.192; M -0.139; G -0.341; Y -0.186; H -0.351
V6: L -0.836; E -0.612; G -0.768; Q -0.781; T -0.51; W -0.751; S -0.713; M -1.01; N -0.826; K -0.211; Y -0.57; P -0.978; D -0.934; H -1.18; A -0.497; C -0.684; R -0.739
L3: Y 0.219; A -0.047; I 0.319; V -0.036; N 0.179; G -0.118; W -0.446; Q -0.055; M -0.1; T -0.025; R -0.152; E -0.048; P -0.372; C -0.373; F 0.284; H 0.133; S -0.062
R2: P -0.502; A -0.226; M -0.074; E -0.105; N 0.04; G -0.176; T -0.263; F 0.16; H 0.072; Q -0.367; Y 0.014; C -0.111; V -0.228; D 0.125; W -0.338; S -0.187; L -0.136; K -0.066
C7: F -0.362; A -0.775; I -1.05; D -0.602; H -1; K -1.19; E -0.874; L -1.17; N -0.635; G -0.96
K1: D -0.089; V -0.334; A -0.34; F -0.641; Q -0.346; W -0.387; L -0.67; S -0.295; G -0.386; E -0.128; R -0.286; T -0.177; N 0.031; C -0.432; H -0.525; I -0.45; M 0.013
